Reference: US20190330360A1 (IGM BIOSCIENCES, published 2019)

T1: GITR on activated human T cells (human, UniProt Q9Y5U5 26-241)
T1 construct: also called GITR on CD4 T cells
T1 sequence: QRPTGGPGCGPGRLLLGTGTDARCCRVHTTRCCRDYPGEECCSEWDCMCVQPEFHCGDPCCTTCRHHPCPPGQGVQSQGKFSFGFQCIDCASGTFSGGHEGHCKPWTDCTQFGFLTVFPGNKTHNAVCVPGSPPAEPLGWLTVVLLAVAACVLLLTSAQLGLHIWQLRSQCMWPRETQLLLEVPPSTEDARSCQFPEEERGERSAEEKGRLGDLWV

B1: Anti-GITR IgG #1 (antibody, V domains shown)
VH: QVQLVESGGGVVQPGRSLRLSCAASGFTFSSYGMHWVRQAPGKGLEWMAVIWYVGSNKYYADSVKGRFTISRDNSKNTLYLQMNSLRAEDTAVYYCARGGELGRDYYSGMDVWGQGTTVTVSS
VL: DIQMTQSPSSLSASVGDRVTITCRASQGIRNDLGWYQQKPGKAPKRLIYAASSLQSGVPSRFSGSGSGTEFTLTISSLQPEDFATYYCQQHNSYPWTFGQGTKVEIKR
notes: VH and VL put into IgG format; Detected with anti-human kappa; also called Anti-GITR #1 IgG; Anti-GITR #1 (IgG format)
B2: Anti-GITR IgG #2 (antibody, V domains shown)
VH: QVQLVESGGGVVQPGRSLRLSCAASGFTFSSYGMHWVRQAPGKGLEWVAVIWYEGSNKYYADSVKGRFTISRDNSKNTLYLQMNSLRAEDTAVYYCARGGSMVRGDYYYGMDVWGQGTTVTVSS
VL: AIQLTQSPSSLSASVGDRVTITCRASQGISSALAWYQQKPGKAPKLLIYDASSLESGVPSRFSGSGSGTDFTLTISSLQPEDFATYYCQQFNSYPYTFGQGTKLEIK
notes: VH and VL put into IgG format; Detected with anti-human kappa; also called Anti-GITR #2 IgG; Anti-GITR #2 (IgG format)

Molecular target: T1, GITR on activated human T cells
Assay: flow cytometry, binding dose response on activated human T cells
Protocol: To assess the ability of IgG and IgM antibodies to bind GITR on activated T cells, a binding assay was performed by the following method. Tissue culture plates were coated with 5 μg/mL of anti-CD3 (eBioscience #16-0037-85) at 4° C. overnight, then washed 2 times with PBS. Purified human CD3 T cells (Astarte Biologics) were seeded at 0.1×10⁶ cells/well and incubated with 2 μg/mL of soluble anti-CD28 (Invitrogen #16-0289-85) for 4 days at 37° C. Cells were washed with FACS Stain Buffer (BD Pharmigen Catalog #554656) and 1×10⁵ cells were stained with serial dilutions of anti-GITR antibodies, 5 μg/mL IgG isotype control (Jackson ImmunoResearch #009-000-003), or 5 μg/mL IgM isotype control (Jackson ImmunoResearch #009-000-012) for 30 minutes at 4° C. Cells were washed twice, then stained for 30 minutes at 4° C. with 5 μg/mL anti-human kappa-AF488 secondary antibody (Biolegend #316512), and anti-human CD4-APC (BD Biosciences #555349) and anti-human CD25-PerCP (Biolegend #356111) for immunophenotyping. Cells were washed twice, resuspended in FACS Stain Buffer, and acquired by flow cytometry. The results are shown in FIG. 3A (Anti-GITR IgG and IgM #1) and FIG. 3B (Anti-GITR IgG and IgM #2). Filled histograms, Isotype controls; Open histograms, Anti-GITR antibodies. All the constructs bound to the activated T cells.

Binder | binding result
B1 | binds
B2 | binds
